From the supplement of paper PMC9170038

Test system: MS2 coat protein
Experiment: apparent KD of MS2 coat protein; designed switch direction (-1 OFF switch, 1 ON switch): -1; higher = weaker reporter binding
How it was run: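 The reported apparent KD is a per-design median over clusters, from curve fits of normalised cluster fluorescence. Protein titrations used SNAP-549-labelled MS2 coat protein, doubled from 0.7 or 1.5 nM to 3 µM, in Tris-HCl pH 7.5 buffer with KCl, MgCl2, BSA, DTT, tRNA and Tween-20, with no input, 200 uM small-molecule ligand, or an oligonucleotide input. The RNA switches were transcribed on Illumina chips by stalled E. coli RNA polymerase.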

[1] = Eterna round: R95, input ligand: FMN 200 uM
[2] = Eterna round: R95, input ligand: microRNA oligo, concentration not stated
[3] = Eterna round: R95, input ligand: none
[4] = input ligand: microRNA oligo, concentration not stated

Sequence | apparent KD of MS2 coat protein (input ligand: FMN 200 uM) | apparent KD of MS2 coat protein (input ligand: none) | apparent KD of MS2 coat protein [1] | apparent KD of MS2 coat protein [2] | apparent KD of MS2 coat protein [3] | apparent KD of MS2 coat protein [4]
UAUAUGUCAGGAUAUUAGUAGUAAAUGAAUAAAAUUAUUACUGAGAAGGGACAUGAGGAUCACCCAUGUGCUUC [Mat - Exclusion 4 - Eli Mod - D25] (Eterna round: R97, puzzle: Exclusion 4) | 224 nM | 27.9 nM |  |  |  | 
UAUGGUAAAGUCAGGAUAUACGUGCAGAUUUCUAGGUAGAAGGGACAUGAGGAUCACCCAUGUAUGGUAGUGUU [Ex4 #45] (Eterna round: R97, puzzle: Brourd's mod of Exclusion 4) | 75.5 nM | 81.2 nM |  |  |  | 
UAUGGUUAAGUCAGGAUAUACAAAUAGAAAUCUGAGUAGAAGGGACAUGAGGAUCACCCAUGUAUGGUAGUGUU [Ex4 #57] (Eterna round: R97, puzzle: Brourd's mod of Exclusion 4) | 79 nM | 74.3 nM |  |  |  | 
UAUGGUUAAGUCAGGAUAUGCACGCAGAUUACAAUGCAGAAGGGACAUGAGGAUCACCCAUGUACACUCGUGUU [Ex4 #80] (Eterna round: R97, puzzle: Brourd's mod of Exclusion 4) | 40.7 nM | 31.8 nM |  |  |  | 
UAUGGUUAAGUCAGGAUAUGCUCGUAGAGGUCUAUGCAGAAGGGACAUGAGGAUCACCCAUGUAAAGUCGUGUU [Ex4 #70] (Eterna round: R97, puzzle: Brourd's mod of Exclusion 4) | 51.5 nM | 25.1 nM |  |  |  | 
UAUGUCGACAAGGAUAUUUGCGCAAACGACCACAAAGAAGGUGUCACAUGAGGAUCACCCAUGUGGUGUGGGCC [Eternabot (L1) Solution 83] (Eterna round: R97, puzzle: Exclusion 6) | 202 nM | 209 nM |  |  |  | 
UAUUAGCAAGCAAAUGGGUACAUGAGGAUCACCCAUGUGCUCGUCUUAUAAGGUACUGUGACGAAAGUCACGGUACC [Eli 91 v35] (Eterna round: R97, puzzle: Sensor, turn-off variant 1) | 24.6 nM | 22.5 nM |  |  |  | 
UAUUAGCAAGCAACUGGGUACAUGAGGAUCACCCAUGUGCUCGUCUUAUAAGGUACUGUUACGAAAGUCACGGUACC [mod--Eli12] (Eterna round: R97, puzzle: Sensor, turn-off variant 1) | 17.3 nM | 15.9 nM |  |  |  | 
UAUUAGCAAGCACGAUCCCACAUGAGGAUCACCCAUGUGCUCGUCUUAUAAGGUACUGUGACGAAAGUCACGGUACC [Sensor 3, v1 - 94] (puzzle: Sensor v3, turn-off variant 1) |  |  | 64.2 nM | 847 nM | 75.9 nM | 
UAUUAGCAAGCAUGAUCCCACAUGAGGAUCACCCAUGUGCUCGUCUUAUAAGGUACUGUGACGAAAGUCACGGUACC [Sensor 3, v1 - 97] (puzzle: Sensor v3, turn-off variant 1) |  |  | 195 nM | 89.4 nM | 218 nM | 
UAUUAGCAAGCGAGAUCCCACAUGAGGAUCACCCAUGUAACAUCCAGAAUUACUGGGUGCAAAGCUCGUCUUAUAUA [Winner reversed engineered 3] (Eterna round: R97, puzzle: Sensor, turn-off variant 1) | 434 nM | 496 nM |  |  |  | 
UAUUAGCAAGCGAGAUCCCACAUGAGGAUCACCCAUGUAAGCAUCCAGAAUUACUGGGUGCAAAAGCUCGUCUUAUA [Winner reversed engineered 5] (Eterna round: R97, puzzle: Sensor, turn-off variant 1) | 29.7 nM | 31 nM |  |  |  | 
UAUUAGCAAGCGAGAUCCCACAUGAGGAUCACCCAUGUGCUCGUCGCAUCCAGAAUUACUGGGUGCGCUCGUCUUAU [Winner reversed engineered 15] (Eterna round: R97, puzzle: Sensor, turn-off variant 1) | 23.8 nM | 23.7 nM |  |  |  | 
UAUUAGCAAGCGAGAUCCCACAUGAGGAUCACCCAUGUGCUCGUCUUAUAAAGUACUGUGACGAAAGUCACGGUACA [Sensor 3, v1 - 91 v3] (Eterna round: R97, puzzle: Sensor, turn-off variant 1) | 14.3 nM | 12.8 nM |  |  |  | 
UAUUAGCAAGCGAGAUCCCACAUGAGGAUCACCCAUGUGCUCGUCUUAUAAAGUACUGUGACGAAAGUCACGGUACG [Mat - Sensor, turn-off var - Eli Mod - D10] (Eterna round: R97, puzzle: Sensor, turn-off variant 1) | 15.1 nM | 14.6 nM |  |  |  | 
UAUUAGCAAGCGAGAUCCCACAUGAGGAUCACCCAUGUGCUCGUCUUAUAAGGUACUGUGACGAUAGUCACGGUACC [Mat - Sensor, turn-off var - Eli Mod - D16] (Eterna round: R97, puzzle: Sensor, turn-off variant 1) | 12.9 nM | 14.8 nM |  |  |  | 
UAUUAGCAAGCGAGUGGGUACAUGAGGAUCACCCAUGUGCUCGUCUUAUAAGGUACUGUGACGAAAGUCACGGUACC [Eli 91 v33] (Eterna round: R97, puzzle: Sensor, turn-off variant 1) | 16.1 nM | 13.4 nM |  |  |  | 
UAUUAGCAAGUAAGGUCCCACAUGAGGAUCACCCAUGUGCUCGUCUCCUCAGGUACGGAGCGGAAGCUCCCGAUAUG [Sensor-V1 #94] (Eterna round: R97, puzzle: Sensor, turn-off variant 1) | 87 nM | 102 nM |  |  |  | 
UAUUAGCAAGUAAGGUCCCACAUGAGGAUCACCCAUGUGCUCGUCUCCUCAGGUACGGAGUGGAAACUCCCGAUAUG [Sensor-V1 #93] (Eterna round: R97, puzzle: Sensor, turn-off variant 1) | 84.7 nM | 76 nM |  |  |  | 
UAUUAGCAAGUGAGAUCCCACAUGAGGAUCACCCAUGUGCUCGUCUUAUAACGUACUGUGACGAAAGUCACGGUACG [Sensor-V1 #81] (Eterna round: R97, puzzle: Sensor, turn-off variant 1) | 52.9 nM | 47.2 nM |  |  |  | 
UAUUAGCAAGUGAGAUCCCACAUGAGGAUCACCCAUGUGCUCGUCUUAUAACGUACUGUGAGGAAACUCACGGUACG [Sensor-V1 #83] (Eterna round: R97, puzzle: Sensor, turn-off variant 1) | 47.6 nM | 51.2 nM |  |  |  | 
UAUUAGUAAGGAUAUGAGCCGUAGGACGAAAGUCCUACGGCUCAGAAGGUACAUGAGGAUCACCCAUGUUCAUU [Mod of Fisker 5 - Jieux - Exclusion 4] (Eterna round: R97, puzzle: Exclusion 4) | 17.7 nM | 15.9 nM |  |  |  | 
UAUUGCGAGUGAGGAUAUGACAUGAGGAUCACCCAUGUAAAGGGAGUUGGCUAUAUAGCAAGUUUUCAGAAGGCACUACUGUAU [JR_ExcNG2_Sub007] (Eterna round: R96, puzzle: Exclusion NG 2) | 114 nM | 66.4 nM |  |  |  | 48.8 nM
UAUUUAGCAAGCAGAUCCCACAUGAGGAUCACCCAUGUUCUCUGAAAGUACAGAAUUACUGUACUUGCUCGUCUUAU [Winner reversed engineered 34] (Eterna round: R97, puzzle: Sensor, turn-off variant 1) | 210 nM | 237 nM |  |  |  | 
UCAACGCAAGGAUAUACUUGCGGUGAUGUUCGAAAUCUUCUACUUGAGGAUCACCCAAGUAGAAGGUGCGGUGA [jl-ex2.4.65 ViennaUCT mod] (Eterna round: R97, puzzle: Exclusion 2) | 12.8 nM | 12.9 nM |  |  |  | 
UCAAGUUUAGAGGAUAUAUAAUAUUUAUUAACUAUAGAAGGCUAUACAUGAGGAUCACCCAUGUAUAUUGGGAU [JR_Ex6_Sub066] (Eterna round: R97, puzzle: Exclusion 6) | 40.6 nM | 26.1 nM |  |  |  | 
UCAAUGCGAGGAUAUACGCACAAUUACAUGAGGAUCACCCAUGUCAUGAACUUUGGUAAGGUAGAAGGCGCUCCGU [Eternabot (L1) Solution 13] (Eterna round: R97, puzzle: Exclusion 5) | 32.4 nM | 41 nM |  |  |  | 
UCAAUUUUGACAGGAUAUAGUUUUUGUUUCUCUCUAGAAGGGUCUGUGUACAUGAGGAUCACCCAUGUUCUUCUUAUUUAUAUU [JR_ExcNG1_Sub014] (Eterna round: R96, puzzle: Exclusion NG 1) | 28.4 nM | 36.7 nM |  |  |  | 28.6 nM
UCACAGUGAGGAUAUUUAAAAUCGGAACCAGUUACCCGGAUGAAGAAGGCACAUGAGGAUCACCCAUGUGGACG [Eternabot (L2) Solution 14] (Eterna round: R97, puzzle: Exclusion 4) | 16.7 nM | 15.3 nM |  |  |  | 
